Experimental data reported in publication PMC8755724, “Single particle cryo-EM structure of the outer hair cell motor protein prestin” (Nature Communications, 2022).

Molecular target: the molecule itself
Test: cryo-EM structure; single-particle cryo-EM of detergent-solubilised prestin (extracted in digitonin, purified in GDN), about 2 mg/ml, 10 mM HEPES, 200 mM NaCl, 0.02% GDN, pH 7.4; C2 symmetry imposed; 3.6 Å

B1: full-length prestin from gerbil (Meriones unguiculatus) tagged at its C terminus with enhanced yellow fluorescent protein (EYFP) (natural protein, UniProt Q9JKQ2 1-744, looked up)
chain: MDHAEENEIPVATQKYHVERPIFSHPVLQERLHVKDKVSESIGDKLKQAFTCTPKKIRNIIYMFLPITKWLPAYKFKEYVLGDLVSGISTGVLQLPQGLAFAMLAAVPPVFGLYSSFYPVIMYCFFGTSRHISIGPFAVISLMIGGVAVRLVPDDIVIPGGVNATNGTEARDALRVKVAMSVTLLSGIIQFCLGVCRFGFVAIYLTEPLVRGFTTAAAVHVFTSMLKYLFGVKTKRYSGIFSVVYSTVAVLQNVKNLNVCSLGVGLMVFGLLLGGKEFNERFKEKLPAPIPLEFFAVVMGTGISAGFNLHESYSVDVVGTLPLGLLPPANPDTSLFHLVYVDAIAIAIVGFSVTISMAKTLANKHGYQVDGNQELIALGICNSIGSLFQTFSISCSLSRSLVQEGTGGKTQLAGCLASLMILLVILATGFLFESLPQAVLSAIVIVNLKGMFMQFSDLPFFWRTSKIELTIWLTTFVSSLFLGLDYGLITAVIIALLTVIYRTQSPSYKVLGQLPDTDVYIDIDAYEEVKEIPGIKIFQINAPIYYANSDLYSNALKRKTGVNPALIMGARRKAMRKYAKEVGNANIANAAVVKVDGEVDGENATKPEEEDDEVKYPPIVIKTTFPEELQRFMPQTENVHTIILDFTQVNFIDSVGVKTLAVMVKEYGDVGIYVYLAGCSPQVVNDLTRNRFFENPALKELLFHSIHDAVLGSHVREAMAEQEASAPPPQDDMEPNATPTTPEA
notes: prestin (Slc26a5), gerbil (Meriones unguiculatus), GenBank AF230376, full-length cDNA; the model is built to residue A726; also called Slc26a5; prestin-YFP; not shown: EYFP, C-terminal, kept
How did the “stoichiometry N” value turn out when B1 was run?
The value was 2.
